Article PMC4366684 (The FEBS journal, 2013)

Legend:
[1] = molecular target: T1, low-specificity Escherichia coli L-threonine aldolase (eTA) (Escherichia coli, UniProt P75823); test: X-ray crystal structure, […] Å, co-crystallised with L-serine; type: binding; conditions: covalent, external aldimine with PLP; partial occupancy
[2] = molecular target: T1, low-specificity Escherichia coli L-threonine aldolase (eTA); test: X-ray crystal structure, […] Å; type: binding; conditions: covalent, internal aldimine with Lys197; 1:1 per subunit
purified protein [3] = substrate: C[C@@H](O)[C@H](N)C(=O)O; test: purified protein; type: biochemical, Escherichia coli; conditions: 20 mM potassium phosphate, pH 7.0, 30 °C, retro-aldol cleavage
purified protein [4] = substrate: C[C@H](O)[C@H](N)C(=O)O; test: purified protein; type: biochemical, Escherichia coli; conditions: 20 mM potassium phosphate, pH 7.0, 30 °C, retro-aldol cleavage

Molecule	X-ray crystal structure, 2.2 Å, co-crystallised with L-serine [1]	X-ray crystal structure, 2.2 Å [2]	Km (purified protein [3])	kcat (purified protein [3])	kcat/Km (purified protein [3])	Km (purified protein [4])	kcat (purified protein [4])	kcat/Km (purified protein [4])
NCC(=O)O [glycine]	external aldimine with glycine (in which the C4’ is bound to the amino group							
Cc1ncc(COP(=O)(O)O)c(C=O)c1O [PLP]		PLP bound at their interface, forming a Schiff base (internal aldimine) with the conserved Lys197						
low-specificity Escherichia coli L-threonine aldolase (eTA) (Escherichia coli K-12) (protein) MIDLRSDTVTRPSRAMLEAMMAAPVGDDVYGDDPTVNALQDYAAELSGKEAAIFLPTGTQANLVALLSHCERGEEYIVGQAAHNYLFEAGGAAVLGSIQPQPIDAAADGTLPLDKVAMKIKPDDIHFARTKLLSLENTHNGKVLPREYLKEAWEFTRERNLALHVDGARIFNAVVAYGCELKEITQYCDSFTICLSKGLGTPVGSLLVGNRDYIKRAIRWRKMTGGGMRQSGILAAAGIYALKNNVARLQEDHDNAAWMAEQLREAGADVMRQDTNMLFVRVGEENAAALGEYMKARNVLINASPIVRLVTHLDVSREQLAEVAAHWRAFLAR			19400 µM	1.87 s⁻¹	96.7 M⁻¹ s⁻¹	240 µM	3.55 s⁻¹	14800 M⁻¹ s⁻¹
low-specificity Escherichia coli L-threonine aldolase (eTA) (Escherichia coli K-12; H126F) (protein) MIDLRSDTVTRPSRAMLEAMMAAPVGDDVYGDDPTVNALQDYAAELSGKEAAIFLPTGTQANLVALLSHCERGEEYIVGQAAHNYLFEAGGAAVLGSIQPQPIDAAADGTLPLDKVAMKIKPDDIFFARTKLLSLENTHNGKVLPREYLKEAWEFTRERNLALHVDGARIFNAVVAYGCELKEITQYCDSFTICLSKGLGTPVGSLLVGNRDYIKRAIRWRKMTGGGMRQSGILAAAGIYALKNNVARLQEDHDNAAWMAEQLREAGADVMRQDTNMLFVRVGEENAAALGEYMKARNVLINASPIVRLVTHLDVSREQLAEVAAHWRAFLAR						200 µM	9.02 s⁻¹	45100 M⁻¹ s⁻¹
low-specificity Escherichia coli L-threonine aldolase (eTA) (Escherichia coli K-12; H126N) (protein) MIDLRSDTVTRPSRAMLEAMMAAPVGDDVYGDDPTVNALQDYAAELSGKEAAIFLPTGTQANLVALLSHCERGEEYIVGQAAHNYLFEAGGAAVLGSIQPQPIDAAADGTLPLDKVAMKIKPDDINFARTKLLSLENTHNGKVLPREYLKEAWEFTRERNLALHVDGARIFNAVVAYGCELKEITQYCDSFTICLSKGLGTPVGSLLVGNRDYIKRAIRWRKMTGGGMRQSGILAAAGIYALKNNVARLQEDHDNAAWMAEQLREAGADVMRQDTNMLFVRVGEENAAALGEYMKARNVLINASPIVRLVTHLDVSREQLAEVAAHWRAFLAR						960 µM	7.82 s⁻¹	8130 M⁻¹ s⁻¹
low-specificity Escherichia coli L-threonine aldolase (eTA) (Escherichia coli K-12; K222A) (protein) MIDLRSDTVTRPSRAMLEAMMAAPVGDDVYGDDPTVNALQDYAAELSGKEAAIFLPTGTQANLVALLSHCERGEEYIVGQAAHNYLFEAGGAAVLGSIQPQPIDAAADGTLPLDKVAMKIKPDDIHFARTKLLSLENTHNGKVLPREYLKEAWEFTRERNLALHVDGARIFNAVVAYGCELKEITQYCDSFTICLSKGLGTPVGSLLVGNRDYIKRAIRWRAMTGGGMRQSGILAAAGIYALKNNVARLQEDHDNAAWMAEQLREAGADVMRQDTNMLFVRVGEENAAALGEYMKARNVLINASPIVRLVTHLDVSREQLAEVAAHWRAFLAR						1200 µM	1.33 s⁻¹	1120 M⁻¹ s⁻¹
low-specificity Escherichia coli L-threonine aldolase (eTA) (Escherichia coli K-12; F87D) (protein) MIDLRSDTVTRPSRAMLEAMMAAPVGDDVYGDDPTVNALQDYAAELSGKEAAIFLPTGTQANLVALLSHCERGEEYIVGQAAHNYLDEAGGAAVLGSIQPQPIDAAADGTLPLDKVAMKIKPDDIHFARTKLLSLENTHNGKVLPREYLKEAWEFTRERNLALHVDGARIFNAVVAYGCELKEITQYCDSFTICLSKGLGTPVGSLLVGNRDYIKRAIRWRKMTGGGMRQSGILAAAGIYALKNNVARLQEDHDNAAWMAEQLREAGADVMRQDTNMLFVRVGEENAAALGEYMKARNVLINASPIVRLVTHLDVSREQLAEVAAHWRAFLAR						410 µM	1.95 s⁻¹	4750 M⁻¹ s⁻¹
low-specificity Escherichia coli L-threonine aldolase (eTA) (Escherichia coli K-12; F87A) (protein) MIDLRSDTVTRPSRAMLEAMMAAPVGDDVYGDDPTVNALQDYAAELSGKEAAIFLPTGTQANLVALLSHCERGEEYIVGQAAHNYLAEAGGAAVLGSIQPQPIDAAADGTLPLDKVAMKIKPDDIHFARTKLLSLENTHNGKVLPREYLKEAWEFTRERNLALHVDGARIFNAVVAYGCELKEITQYCDSFTICLSKGLGTPVGSLLVGNRDYIKRAIRWRKMTGGGMRQSGILAAAGIYALKNNVARLQEDHDNAAWMAEQLREAGADVMRQDTNMLFVRVGEENAAALGEYMKARNVLINASPIVRLVTHLDVSREQLAEVAAHWRAFLAR						310 µM	2.67 s⁻¹	8600 M⁻¹ s⁻¹
